Measurements published in patent US20250326851A1 (Bayer, published 2025).
Values joined by “and” are separate entries in the source; they are usually repeats but may differ in a detail not shown here. Equal values may be shown once.

What was measured:
human CCR8 [1] = molecular target: T1, human CCR8 (human, UniProt P51685 1-355); assay: cell-based or functional assay
human CCR8 [2] = molecular target: T1, human CCR8; assay: flow cytometry using HEK293 cells, 0.0046 to 10 µg/mL (selectivity study)
human CCR8 [3] = molecular target: T1, human CCR8; assay: cell-based or functional assay; remark: listed apart in the source
Mouse FcγRIV/CD16-2 = molecular target: T2, Mouse FcγRIV/CD16-2 (mouse, UniProt A0A0B4J1G0 21-203); assay: SPR
T2 construct: also called mFcγR variant
T2 sequence: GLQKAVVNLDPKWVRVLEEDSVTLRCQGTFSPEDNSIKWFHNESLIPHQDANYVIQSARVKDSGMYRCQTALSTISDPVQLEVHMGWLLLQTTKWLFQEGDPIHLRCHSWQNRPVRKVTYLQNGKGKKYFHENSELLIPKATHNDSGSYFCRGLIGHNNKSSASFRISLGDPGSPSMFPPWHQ
Protocol: (§1) The binding of murine surrogate antibodies to mouse Fc receptor variants (mFcγR and mFcRn) was analyzed by SPR.

Mouse FcRn = molecular target: T3, Mouse FcRn (mouse, UniProt Q61559 22-297; P01887 21-119); assay: SPR
T3 construct: also called mFcRn; murine FcRn
T3 sequence (looked up) 1: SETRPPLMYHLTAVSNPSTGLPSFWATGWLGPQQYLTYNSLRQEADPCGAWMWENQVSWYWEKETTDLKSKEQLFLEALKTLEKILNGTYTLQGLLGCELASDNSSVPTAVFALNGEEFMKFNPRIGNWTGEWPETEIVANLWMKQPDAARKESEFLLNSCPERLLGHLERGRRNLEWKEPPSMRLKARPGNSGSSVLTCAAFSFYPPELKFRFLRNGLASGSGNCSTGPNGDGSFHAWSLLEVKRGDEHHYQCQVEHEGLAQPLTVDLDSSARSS
T3 sequence (looked up) 2: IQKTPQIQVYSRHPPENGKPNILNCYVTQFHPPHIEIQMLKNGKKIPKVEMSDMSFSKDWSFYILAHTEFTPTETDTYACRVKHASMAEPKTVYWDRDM
Protocol: as §1

[4] = molecular target: T4, mouse CCR8 on HEK293 cells (mouse, UniProt P56484 1-353); assay: cell-based or functional assay
T4 sequence (looked up): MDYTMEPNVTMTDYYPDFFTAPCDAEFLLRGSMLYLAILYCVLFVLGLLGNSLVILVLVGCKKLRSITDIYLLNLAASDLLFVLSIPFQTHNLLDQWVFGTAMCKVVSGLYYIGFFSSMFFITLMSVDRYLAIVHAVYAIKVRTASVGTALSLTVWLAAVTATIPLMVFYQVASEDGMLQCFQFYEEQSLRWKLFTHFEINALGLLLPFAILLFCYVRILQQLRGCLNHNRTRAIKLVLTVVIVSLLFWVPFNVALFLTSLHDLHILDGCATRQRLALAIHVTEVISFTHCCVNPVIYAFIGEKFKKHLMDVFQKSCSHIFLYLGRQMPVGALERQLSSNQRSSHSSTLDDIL

[5] = molecular target: T4, mouse CCR8 on HEK293 cells; assay: flow cytometry, mouse CCR8-expressing HEK293 cells; reference TPP-15285
Protocol: (§2) The binding properties of murine surrogate antibodies were assessed using flow cytometry on HEK293 cells ectopically expressing murine CCR8.

[6] = molecular target: T5, Mouse FcγRIIA/CD32a (R167) (mouse); assay: SPR; approximation, saturation not reached
T5 construct: The printed name is that of a human receptor allotype; kept as printed; also called mFcγR variant
Protocol: as §1

Mouse FcγRIIIB/CD16b = molecular target: T6, Mouse FcγRIIIB/CD16b (mouse); assay: SPR; approximation, saturation not reached
T6 construct: The printed name is that of a human receptor; kept as printed; also called mFcγR variant
Protocol: as §1

[7] = molecular target: T4, mouse CCR8 on HEK293 cells; assay: flow cytometry on murine CCR8-transfected HEK293 cells
Protocol: as §2

[8] = molecular target: T4, mouse CCR8 on HEK293 cells; assay: cell-based or functional assay; remark: listed apart in the source

T1 sequence (P51685 whole entry): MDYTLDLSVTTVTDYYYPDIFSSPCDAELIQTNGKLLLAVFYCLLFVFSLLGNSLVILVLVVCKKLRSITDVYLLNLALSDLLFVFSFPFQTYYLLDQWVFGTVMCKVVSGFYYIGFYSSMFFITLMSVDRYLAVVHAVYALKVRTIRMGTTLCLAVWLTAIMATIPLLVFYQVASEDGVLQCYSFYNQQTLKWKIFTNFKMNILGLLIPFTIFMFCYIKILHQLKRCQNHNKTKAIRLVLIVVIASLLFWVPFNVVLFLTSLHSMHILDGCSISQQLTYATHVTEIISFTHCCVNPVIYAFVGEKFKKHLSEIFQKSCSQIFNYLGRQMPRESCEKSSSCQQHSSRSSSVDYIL

B1: TPP-23411 (afucosylated) (antibody, human IgG1, lambda, V domains shown)
VH: EVQLLESGGGLVQPGGSLRLSCAASGFTFSSYGMHWVRQAPGKGLEWVSAINWNGGSTGYADSVKGRFTISRDNSKNTLYLQMNSLRAEDTAVYYCARGHHSGYDGRFFDYWGQGTLVTVSS
VL: QSVLTQPPSVSGAPGQRVTISCTGSSSNIGAGYNVHWYQQLPGTAPKLLIYTNNRRPSGVPDRFSGSKSGTSASLAISGLRSEDEADYYCAAWDASLSGWVFGGGTKLTVLG
modifications: afucosylated Fc glycan
notes: Fully human IgG1 lambda; In the ADA bridging assay it was biotinylated or SULFO-tagged; also called 21360-hIgG1wtlambda; anti-human CCR8 antibody hIgG1 isotype (afucosylated)
ADCC EC50; HEK-hCCR8 target cells, NK92V effector cells (human CCR8 [1]): 0.0128 nM
ADCC EC50; Tregs, donor 1100 (85.0% CCR8 expression), NK92V effector cells (human CCR8 [1]): 0.0281 nM
ADCC EC50; Tregs, donor 1163 (31.4% CCR8 expression), NK92V effector cells (human CCR8 [1]): 0.0559 nM
EC50 (human CCR8 [2]): 0.129 mg/L
ADCP EC50; Tregs, donor 1100 (63% CCR8 expression), human M2c macrophages (human CCR8 [3]): 0.143 nM
ADCP EC50; Tregs, donor 1163 (40% CCR8 expression), human M2c macrophages (human CCR8 [3]): 0.44 nM

B2: TPP-23411 (wild-type) (antibody, human IgG1, lambda, V domains shown)
VH: EVQLLESGGGLVQPGGSLRLSCAASGFTFSSYGMHWVRQAPGKGLEWVSAINWNGGSTGYADSVKGRFTISRDNSKNTLYLQMNSLRAEDTAVYYCARGHHSGYDGRFFDYWGQGTLVTVSS
VL: QSVLTQPPSVSGAPGQRVTISCTGSSSNIGAGYNVHWYQQLPGTAPKLLIYTNNRRPSGVPDRFSGSKSGTSASLAISGLRSEDEADYYCAAWDASLSGWVFGGGTKLTVLG
modifications: conventional (fucosylated) glycosylation
ADCC EC50; HEK-hCCR8 target cells, NK92V effector cells (human CCR8 [1]): 0.0702 nM
ADCP EC50; Tregs, donor 1100 (63% CCR8 expression), human M2c macrophages (human CCR8 [3]): 0.155 nM
ADCP EC50; Tregs, donor 1163 (40% CCR8 expression), human M2c macrophages (human CCR8 [3]): 0.148 nM

B3: TPP-29338 (short half-life) (antibody, mouse IgG2a)
heavy: EVQLLESGGGLVQPGGSLRLSCAASGFTFSDYGVHWVRQAPGKGLEWVSGVSWNGSRTHYADSVKGRFTISRDNSKNTLYLQMNSLRAEDTAVYYCVTRGAWGQGTLVTVSSAKTTAPSVYPLAPVCGDTTGSSVTLGCLVKGYFPEPVTLTWNSGSLSSGVHTFPAVLQSDLYTLSSSVTVTSSTWPSQSITCNVAHPASSTKVDKKIEPRGPTIKPCPPCKCPAPNLLGGPSVFIFPPKIKDVLMISLSPIVTCVVVDVSEDDPDVQISWFVNNVEVHTAQTQTHREDYNSTLRVVSALPIQANDWMSGKEFKCKVNNKDLPAPIERTISKPKGSVRAPQVYVLPPPEEEMTKKQVTLTCMVTDFMPEDIYVEWTNNGKTELNYKNTEPVLDSDGSYFMYSKLRVEKKNWVERNSYSCSVVHEGLAQHHTTKSFSRTPGK
light: QSVLTQPPSASGTPGQRVTISCSGSSFNIGSHFVYWYQQLPGTAPKLLIYKNNQRPSGVPDRFSGSKSGTSASLAISGLRSEDEADYYCAAWDDSLNGPVFGGGTKLTVLGQPKSSPSVTLFPPSSEELETNKATLVCTITDFYPGVVTVDWKVDGTPVTQGMETTQPSKQSNNKYMASSYLTLTARAWERHSSYSCQVTHEGHTVEKSLSRADCS
Kd (Mouse FcγRIV/CD16-2): 1400 nM
binding result (Mouse FcRn): no binding (tested: 15.6 to 2,000 nM (FcRn assay))
ADCC EC50 (ng/mL) at 20 hours; mouse CCR8-expressing HEK293 cells, mouse NK cells [4]: 1.33 ng/mL
ADCC EC50 (pM) at 20 hours; mouse CCR8-expressing HEK293 cells, mouse NK cells [4]: 9.28 pM
fold higher affinity compared to TPP-15825 [5]: 10 fold
Kd [6]: ~12000 nM
Kd (Mouse FcγRIIIB/CD16b): ~19000 nM
EC50 [7]: 0.495 nM and 0.071 µg/mL
cumulative ADCP EC50 (ng/mL), 4 hours; mouse CCR8-expressing HEK293 cells, mouse M2 macrophages [8]: 74.3 ng/mL
cumulative ADCP EC50 (ng/mL), 12 hours; mouse CCR8-expressing HEK293 cells, mouse M2 macrophages [8]: 28.3 ng/mL
cumulative ADCP EC50 (pM), 4 hours; mouse CCR8-expressing HEK293 cells, mouse M2 macrophages [8]: 518 pM
cumulative ADCP EC50 (pM), 12 hours; mouse CCR8-expressing HEK293 cells, mouse M2 macrophages [8]: 197 pM

B4: TPP-15285 (normal half-life) (antibody, V domains shown)
VH: EVQLLESGGGLVQPGGSLRLSCAASGFTFSDYGVHWVRQAPGKGLEWVSGVSWNGSRTHYADSVKGRFTISRDNSKNTLYLQMNSLRAEDTAVYYCVTRGAWGQGTLVTVSS
VL: not shown
notes: Anti-mouse CCR8 antibody, human VH/VL chimerized to mIgG2a (lambda)
ADCC EC50 (ng/mL) at 20 hours; mouse CCR8-expressing HEK293 cells, mouse NK cells [4]: 32.6 ng/mL
ADCC EC50 (pM) at 20 hours; mouse CCR8-expressing HEK293 cells, mouse NK cells [4]: 227 pM
EC50 [7]: 12.5 nM and 1.8 µg/mL
cumulative ADCP EC50 (ng/mL), 4 hours; mouse CCR8-expressing HEK293 cells, mouse M2 macrophages [8]: 54.5 ng/mL
cumulative ADCP EC50 (ng/mL), 12 hours; mouse CCR8-expressing HEK293 cells, mouse M2 macrophages [8]: 22.7 ng/mL
cumulative ADCP EC50 (pM), 4 hours; mouse CCR8-expressing HEK293 cells, mouse M2 macrophages [8]: 380 pM
cumulative ADCP EC50 (pM), 12 hours; mouse CCR8-expressing HEK293 cells, mouse M2 macrophages [8]: 158 pM
